Results from doi:10.1101/781070 (bioRxiv, 2019).

Biological target: the molecule itself
Test: crystal structure

B1: Drosophila melanogaster Noppera-bo (DmNobo), wild type (enzyme)
chain: MSQPKPILYYDERSPPVRSCLMLIKLLDIDVELRFVNLFKGEQFQKDFLALNPQHSVPTLVHGDLVLTDSHAILIHLAEKFDEGGSLWPQEHAERMKVLNLLLFECSFLFRRDSDFMSATVRQGFANVDVAHHERKLTEAYIIMERYLENSDFMAGPQLTLADLSIVTTLSTVNLMFPLSQFPRLRRWFTAMQQLDAYEANCSGLEKLRQTMESVGSFQFPSSSAVVTEKVE
In the case of B1, the “stoichiometry N” value is reported as 2.
